From paper PMC3258140 (Nucleic Acids Research, 2011) come the findings set out here.

This data set concerns the molecule itself. Kind of data set: crystal structure.

B1: Thermotoga maritima Mre11^(H94Q, F291S) (residues L7M-385), nuclease deficient (enzyme)
chain: MKILHTSDWHLGVTSWTSSRPVDRREELKKALDKVVEEAEKREVDLILLTGDLLHSRNNPSVVALHDLLDYLKRMMRTAPVVVLPGNQDWKGLKLFGNFVTSISSDITFVMSFEPVDVEAKRGQKVRILPFPYPDESEALRKNEGDFRFFLESRLNKLYEEALKKEDFAIFMGHFTVEGLAGYAGIEQGREIIINRALIPSVVDYAALGHIHSFREIQKQPLTIYPGSLIRIDFGEEADEKGAVFVELKRGEPPRYERIDASPLPLKTLYYKKIDTSALKSIRDSCRNFPGYVRVVYEEDSGILPDLMGEIDNLVKIERKSRREIEEVLRESPEEFKEELDKLDYFELFKEYLKKREENHEKLLKILDELLDEVKKSEA
As for B1, the binding result is listed as “binds”.
